Test results as given in paper PMC10567733, “C9orf72-catalyzed GTP loading of Rab39A enables HOPS-mediated membrane tethering and fusion in mammalian autophagy” (Nature Communications, 2023).

T1: Myc-C9orf72 (human, UniProt Q96LT7 1-481)
T1 construct: C9orf72, human, cloned from human cDNA; source: E. coli BL21 (DE3), purified (Glutathione Sepharose, eluted by TEV cleavage or GSH); not shown: Myc, N-terminal, kept
T1 sequence (looked up): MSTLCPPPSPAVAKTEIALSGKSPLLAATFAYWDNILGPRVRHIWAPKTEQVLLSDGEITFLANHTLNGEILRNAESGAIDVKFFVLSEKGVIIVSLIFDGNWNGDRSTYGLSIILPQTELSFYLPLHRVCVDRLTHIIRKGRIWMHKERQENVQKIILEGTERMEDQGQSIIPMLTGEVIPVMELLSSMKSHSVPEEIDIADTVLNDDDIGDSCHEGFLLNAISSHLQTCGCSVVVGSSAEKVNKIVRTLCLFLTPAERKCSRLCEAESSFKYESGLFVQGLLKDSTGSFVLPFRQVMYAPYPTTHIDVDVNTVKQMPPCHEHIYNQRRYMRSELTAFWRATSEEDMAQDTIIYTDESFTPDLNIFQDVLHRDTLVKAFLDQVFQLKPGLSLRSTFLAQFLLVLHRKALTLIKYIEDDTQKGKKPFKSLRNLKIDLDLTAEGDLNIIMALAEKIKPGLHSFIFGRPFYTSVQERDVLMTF

T2: VPS41-Flag (human, UniProt P49754 1-854)
T2 construct: VPS41, human, cloned from human cDNA (293T cells); also called V41; not shown: Flag, C-terminal, kept
T2 sequence (looked up): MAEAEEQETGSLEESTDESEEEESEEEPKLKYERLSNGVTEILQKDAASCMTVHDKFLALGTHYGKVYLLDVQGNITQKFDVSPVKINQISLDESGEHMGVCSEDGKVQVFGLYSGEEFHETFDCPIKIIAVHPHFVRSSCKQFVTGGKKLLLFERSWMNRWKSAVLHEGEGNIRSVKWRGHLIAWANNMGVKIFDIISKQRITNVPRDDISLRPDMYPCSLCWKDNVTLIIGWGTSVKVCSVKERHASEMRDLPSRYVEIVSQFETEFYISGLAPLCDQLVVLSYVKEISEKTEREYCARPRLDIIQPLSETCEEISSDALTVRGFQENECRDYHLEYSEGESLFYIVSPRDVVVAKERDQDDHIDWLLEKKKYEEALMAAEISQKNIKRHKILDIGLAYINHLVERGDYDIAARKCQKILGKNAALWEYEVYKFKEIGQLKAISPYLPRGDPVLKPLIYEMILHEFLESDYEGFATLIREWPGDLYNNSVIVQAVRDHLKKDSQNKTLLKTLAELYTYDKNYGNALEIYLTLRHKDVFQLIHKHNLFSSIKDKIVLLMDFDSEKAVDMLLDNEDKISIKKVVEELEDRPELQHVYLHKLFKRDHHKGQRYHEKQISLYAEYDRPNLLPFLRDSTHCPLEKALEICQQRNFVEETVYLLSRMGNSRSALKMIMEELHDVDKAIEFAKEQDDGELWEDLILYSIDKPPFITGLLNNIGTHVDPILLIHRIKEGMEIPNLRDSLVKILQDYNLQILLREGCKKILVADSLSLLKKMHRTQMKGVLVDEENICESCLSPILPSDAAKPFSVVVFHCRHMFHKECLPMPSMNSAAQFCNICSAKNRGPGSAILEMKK


Columns and labels:
Myc-C9orf72 = molecular target: T1, Myc-C9orf72; test: pull-down; Glutathione Sepharose beads bound with GST, GST-Rab39A or GST-Rab39B, incubated with the purified protein for one hour, washed, boiled, immunoblot; settings: both partners purified
VPS41-Flag = molecular target: T2, VPS41-Flag; test: as above; settings: both partners purified

Binder	binding result (Myc-C9orf72)	binding result (VPS41-Flag)
GST-Rab39A (natural protein, human, UniProt Q14964 1-217, looked up, Rab39A, human, cloned from human cDNA; unprenylated; also called GST-R39A; purified Rab39A; source: E. coli BL21 (DE3), purified (Glutathione Sepharose); not shown: GST, N-terminal, kept) METIWIYQFRLIVIGDSTVGKSCLLHRFTQGRFPGLRSPACDPTVGVDFFSRLLEIEPGKRIKLQLWDTAGQERFRSITRSYYRNSVGGFLVFDITNRRSFEHVKDWLEEAKMYVQPFRIVFLLVGHKCDLASQRQVTREEAEKLSADCGMKYIETSAKDATNVEESFTILTRDIYELIKKGEICIQDGWEGVKSGFVPNTVHSSEEAVKPRKECFC	binds	binds
GST-Rab39B (natural protein, human, UniProt Q96DA2 1-213, looked up, Rab39B, human, cloned from human cDNA; unprenylated; also called GST-R39B; purified Rab39B; source: E. coli BL21 (DE3), purified (Glutathione Sepharose); not shown: GST, N-terminal, kept) MEAIWLYQFRLIVIGDSTVGKSCLIRRFTEGRFAQVSDPTVGVDFFSRLVEIEPGKRIKLQIWDTAGQERFRSITRAYYRNSVGGLLLFDITNRRSFQNVHEWLEETKVHVQPYQIVFVLVGHKCDLDTQRQVTRHEAEKLAAAYGMKYIETSARDAINVEKAFTDLTRDIYELVKRGEITIQEGWEGVKSGFVPNVVHSSEEVVKSERRCLC	binds	binds
